Data as given in patent publication US6660492B1, “Chimeric serine proteases” (Boehringer Mannheim GmbH, priority 1997, dated 2003).

Experiments:
Assay type in all cases: biochemical
Conditions in all cases: pH 8.0, RT, 405 nm
[1] = Activity determination and kinetic constants with chromogenic substrate Chromozym X
Protocol: (§1) The activity of the renatured activated rFXTa proteases was determined with the chromogenic substrates Chromozym® X (N-methoxycarbonyl-D-Nle-Gly-Arg-pNA, Boehringer Mannheim GmbH, Mannheim, Cat. No. 789763), Chromozym® U (Bz-β-Ala-Gly-Arg-pNA, Boehringer Mannheim GmbH, Mannheim, Cat. No.836583), Chromozym® PK (Bz-Pro-Phe-Arg-pNA, Boehringer Mannheim GmbH, Mannheim, Cat. No. 378445) and Chromozym® TH (Tosyl-Gly-Pro-Arg-pNA, Boehringer Mannheim GmbH, Mannheim, Cat. No. 838268) in comparison with recombinant rFXa (rFX-EGF2-AP-CD; preparation and description see PCT/EP97/03027) and native human trypsin (Sigma-Aldrich Chemie GmbH, Deisenhofen, Germany, Cat. No. T6424). Abbreviations: Bz, benzoyl; pNA, p-nitroaniline.
(§2) 10-100 μl sample was filled up to 200 μl with 190-100 μl 50 mmol/l Tris-HCl, 150 mmol/l NaCl, 5 mmol/l CaCl2, 0.1% PEG 8000, pH 8.0 and 20 μl Chromozym® X, U, PK and TH (0.5-40 mmol/l) were added to and measured against a reagent blank value in an ELISA reader at a wavelength of 405 nm and RT. The activity and the kinetic constants were determined from the linear initial slope according to the Michaelis Menten equation.

[2] = Activity determination and kinetic constants with chromogenic substrate Chromozym U
Protocol: as §1, §2

[3] = Activity determination and kinetic constants with chromogenic substrate Chromozym PK
Protocol: as §1, §2

[4] = Activity determination and kinetic constants with chromogenic substrate Chromozym TH
Protocol: as §1, §2

Work on “trypsin: native human trypsin (Sigma-Aldrich, Cat. No. T6424)” yielded a Km [1] of 43 µM, a kcat [1] of 153 s⁻¹ and a Km [2] of 208 µM. For the same substance, the kcat [2] was 225 s⁻¹, the Km [3] was 17 µM and the kcat [3] was 38 s⁻¹. It also gave a Km [4] of 13 µM and a kcat [4] of 95 s⁻¹.
